From US20170107258

What was measured:
[1] = tested on: T1, cyclic peptide P1, c(RLsKDK), cyclo(Arg-Leu-{β-Ser}-Lys-Asp-Lys)
T1 sequence: RLSKDK

[2] = tested on: T2, cyclic peptide P2, c(rLSKDK)
T2 sequence: RLSKDK

[3] = tested on: T3, cyclic peptide P3, c(RlSKDK)
T3 sequence: RLSKDK

purified recombinant ADAM8
ADAM8 proteolytic activity, fluorogenic CD23 peptide, peptides at 100 nM [1]: cyclic peptide P1 showed the most marked inhibition
ADAM8 proteolytic activity, fluorogenic CD23 peptide, peptides at 100 nM [2]: Cyclic peptides P2 and P3 showed inhibition of ADAM8 proteolytic activity
ADAM8 proteolytic activity, fluorogenic CD23 peptide, peptides at 100 nM [3]: Cyclic peptides P2 and P3 showed inhibition of ADAM8 proteolytic activity
